Bridge positions count the residues as written; N and C are the ends. Ends that are not written are not given here.
T1: human IL-2Rα subunit (human, UniProt P01589 22-213, limits assumed)
T1 construct: also called CD25
T1 sequence (looked up): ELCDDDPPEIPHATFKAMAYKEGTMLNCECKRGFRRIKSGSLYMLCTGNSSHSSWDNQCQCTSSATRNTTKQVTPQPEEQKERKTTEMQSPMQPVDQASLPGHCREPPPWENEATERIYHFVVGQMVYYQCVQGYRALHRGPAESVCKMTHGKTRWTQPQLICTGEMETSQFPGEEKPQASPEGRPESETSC


The binders below were run against T1, human IL-2Rα subunit.

Row | Binder | IC50 [µM]
1 | QLCPWSDPGSWGPCPL [SEQ ID NO 219] | < 100
2 | RCTLRFDAQTGWECN [SEQ ID NO 202] | < 100
3 | THCLVQWPGPVVACRS [SEQ ID NO 194] | < 100
4 | TCTVHRIGLAEWECV (disulfide 2-14 (inferred)) [SEQ ID NO 204] | < 100
5 | TRCRLLKLGSLWECFG [SEQ ID NO 195] | < 100
6 | NCRVRHLPYPFWSCL [SEQ ID NO 200] | < 100
7 | KVICGWDGCR [SEQ ID NO 20] | < 100
8 | FVLCGLQGCRGS [SEQ ID NO 19] | < 100
9 | SSCTLFNPGTGWTCVF [SEQ ID NO 192] | < 100
10 | RDCAGMEPGTSVFCDN [SEQ ID NO 220] | < 100
11 | VRCFMSEPGRVSYCTA [SEQ ID NO 209] | < 100
12 | VVLCTPKGCRSA [SEQ ID NO 22] | < 100
13 | VRCRVLYPGQMAVCVS [SEQ ID NO 211] | < 100
14 | RDCFILEPGTSVYCDL [SEQ ID NO 221] | < 100
15 | ACWRSWRYPTRTFCS [SEQ ID NO 198] | < 100
16 | VYCRREKPGGEMHCRS [SEQ ID NO 213] | < 100
17 | VRCRLARPGLTWECLS [SEQ ID NO 210] | < 100

Row | Binder | IC50 [µM]
18 | TCRLKRSGPNSWECI [SEQ ID NO 203] | < 100
19 | LVFCGKNGCHSG [SEQ ID NO 21] | < 100
20 | HGCTLTKPGAEWVCSF [SEQ ID NO 218] | < 100
21 | VKCKLVNPGSGWACHF (disulfide 3-14 (inferred)) [SEQ ID NO 208] | < 100
22 | KCRLRQMSRGGWECL [SEQ ID NO 199] | < 100
23 | RCRLQKAGGNTWECI [SEQ ID NO 201] | < 100
24 | ATCHLLAPGVDNTCIF [SEQ ID NO 217] | < 100
25 | VTCYRAVPGVEAYCFS [SEQ ID NO 212] | < 100
26 | RRFCLRSEPTACWIV [SEQ ID NO 59] | < 100
27 | RRFCLRSEPTACWTV (disulfide 4-12 (inferred)) [SEQ ID NO 66] | < 100
28 | RRFCLRSEPMACWTV (disulfide 4-12 (inferred)) [SEQ ID NO 65] | < 100
29 | RRFCLRSDPTACWIV [SEQ ID NO 63] | < 100
30 | RRFCLRSEPTACWDV [SEQ ID NO 62] | < 100
31 | IRFCLRSEPTACWIV [SEQ ID NO 54] | < 100
32 | MRFCLRSEPTACWTV [SEQ ID NO 61] | < 100
33 | KRFCLRSEPTACWTV [SEQ ID NO 64] | < 100
34 | STCRMGNPGGVWGCYF (disulfide 3-14 (inferred)) [SEQ ID NO 193] | < 100

More lines, now with the values ahead:

Row | IC50 [µM] | Binder
35 | < 100 | WCWEPHDQYYVRCP [SEQ ID NO 232]
36 | < 100 | YVMCSAFGCKSI [SEQ ID NO 241]
37 | < 100 | VKCFMSTPGQIAYCTT [SEQ ID NO 223]
38 | < 100 | SCMDLKGSVGWVCD [SEQ ID NO 229]
39 | < 100 | WDQFQLGWEAGVAA [SEQ ID NO 239]
40 | < 100 | WCIGQPLFRQGSCK [SEQ ID NO 237]
41 | < 100 | TDCQETWPGDRPWCHI [SEQ ID NO 222]
42 | < 100 | YCHDFKGTVGTLCI (disulfide 2-13 (inferred)) [SEQ ID NO 233]
43 | < 100 | WCVGQPLYRLGSCK (disulfide 2-13 (inferred)) [SEQ ID NO 238]
44 | < 100 | PCQRLAEYYSQQCL (disulfide 2-13 (inferred)) [SEQ ID NO 228]
45 | < 100 | HVICSVNGGCRG [SEQ ID NO 242]
46 | < 100 | DCLDLRGTVGMVCQ [SEQ ID NO 227]
47 | < 100 | VKCYRNSPGVEAYCVG (disulfide 3-14 (inferred)) [SEQ ID NO 224]
48 | < 100 | FLPWPVYFSQVLGGG [SEQ ID NO 240]
49 | < 100 | GCQLVWQDDSYMCFY [SEQ ID NO 234]
50 | < 100 | TCESLAKMYEVECN [SEQ ID NO 230]
51 | < 100 | TCESLARMYNENCI [SEQ ID NO 231]

— patent US20200399314A1 (MEDIKINE, published 2020)
